In article doi:10.1101/718072:
Where two headings read alike, the source gives them in different places.

What was measured:
[1] = target: FliF (flagellar MS-ring protein) from Salmonella enterica serovar Typhimurium (Salmonella enterica serovar Typhimurium) (UniProt P15928); assay: cryo-EM structure
[2] = target: FliF (flagellar MS-ring protein) from Salmonella enterica serovar Typhimurium (Salmonella enterica serovar Typhimurium) (UniProt P15928); assay: cryo-EM structure; remark: listed apart in the source

Which results are given for “FliF (flagellar MS-ring protein) from Salmonella enterica serovar Typhimurium (from UniProt P15928 1-560) (natural protein)”?
stoichiometry N [1]: 33; stoichiometry N [2]: 34
